# ± gives the uncertainty stated by the source.
# Experiment: self-splicing fitness, log relative to wild type (ln ratio); higher = more splicing; Tetrahymena group I intron in knt gene, E. coli kanamycin selection, DiMSum; sequences stand for … in CUCUCU…GGAGGGAAAAGUUAUCAGGCAUGCACCUGGUAGCUAGUCUUUAAACCAAUAGAUUGCAUCGGUUUAAAAGGCAAGACCGUCAAAUUGCGGGAAAGGGGUCAACAGCCGUUCAGUACCAAGUCUCAGGGGAAACUUUGAGAUGGCCUUGCAAAGGGUAUGGUAAUAAGCUGACGGACAUGGUCCUAACCACGCAGCCAAGUCCUAAGUCAACAGAUCUUCUGUUGAUAUGGAUGCAGUUCACAGACUAAAUGUCGGUCGGGGAAGAUGUAUUCUUCUCAUAAGAUAUAGUCGGACCUCUCCUUAAUGGGAGCUAGCGGAUGAAGUGAUGCAACACUGGAGCCGCUGGGAACUAAUUUGUAUGCGAAAGUAUAUUGAUUAGUUUUGGAGUACUCGUGGUCG
# Summary of the method: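 Colonies from six replicate transformations of E. coli BL21(DE3) were pooled and amplicon-sequenced on an Illumina HiSeq 2500. The library placed an intron with all eight P1ex-region nucleotides randomised inside the knt kanamycin-resistance gene on pET-22b(+), and cells grew overnight at 37°C or 30°C on LB agar with or without 25 μg/mL kanamycin (plus 100 μg/mL carbenicillin, 50 μM IPTG, 0.2% rhamnose). Fitness is the DiMSum error-weighted combination of wild-type-normalised replicate fold changes, kanamycin versus none.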
Sequence,self-splicing fitness (ln) (30 °C),self-splicing fitness (ln) (37 °C)
GCGUAGCAAUAUUACGUCCU,-1.47 ± 0.14,-0.8 ± 0.15
UAAUAGCAAUAUUACGGGAA,-2.04 ± 0.21,-2.11 ± 0.26
CUGCAGCAAUAUUACGUAAA,-3.28 ± 0.14,-1.19 ± 0.14
CCUGAGCAAUAUUACGGGAU,-3.46 ± 0.24,-1.63 ± 0.2
GACGAGCAAUAUUACGAAGU,-3.26 ± 0.22,-2.57 ± 0.26
UGGAAGCAAUAUUACGCAAU,-1.81 ± 0.24,-0.664 ± 0.24
UAAGAGCAAUAUUACGGAUC,-3.68 ± 0.46,-1.64 ± 0.31
GCCGAGCAAUAUUACGUCUU,-2.71 ± 0.16,-1.82 ± 0.14
GGUCAGCAAUAUUACGAAGG,-0.594 ± 0.14,-0.251 ± 0.22
UUCUAGCAAUAUUACGAGGC,,-2.11 ± 0.38
UAGAAGCAAUAUUACGAAAG,-1.97 ± 0.21,-1.26 ± 0.18
GGAAAGCAAUAUUACGUAAC,-1.42 ± 0.12,-1.42 ± 0.16
ACUUAGCAAUAUUACGGGUG,-1.14 ± 0.059,-0.754 ± 0.085
UUGGAGCAAUAUUACGCGAG,-1.15 ± 0.13,-1.8 ± 0.21
CCUGAGCAAUAUUACGUAGU,-3.18 ± 0.14,-1.21 ± 0.14
AGUCAGCAAUAUUACGAUCU,-0.19 ± 0.07,0.36 ± 0.09
CUAAAGCAAUAUUACGGCAA,-3.27 ± 0.18,-1.35 ± 0.15
AGCUAGCAAUAUUACGCUCA,-1.67 ± 0.25,-2.11 ± 0.37
UCAGAGCAAUAUUACGUCAC,-2.51 ± 0.18,
GAUUAGCAAUAUUACGGAGU,-2.77 ± 0.19,-2.5 ± 0.23
CCAGAGCAAUAUUACGCCGU,-4.04 ± 0.48,
CAUCAGCAAUAUUACGCUAU,-2.87 ± 0.13,-2.64 ± 0.2
UUCCAGCAAUAUUACGCUGG,-3.73 ± 0.27,-2.51 ± 0.31
UCACAGCAAUAUUACGAAAG,-3.82 ± 0.25,-2.73 ± 0.23
UGGGAGCAAUAUUACGUCCC,-3.01 ± 0.4,-1.84 ± 0.41

Sequence,self-splicing fitness (ln) (30 °C),self-splicing fitness (ln) (37 °C)
UCCUAGCAAUAUUACGAGUU,-3.71 ± 0.3,-1.24 ± 0.18
GGGUAGCAAUAUUACGAUGG,-2.86 ± 0.24,-2.65 ± 0.37
GUCAAGCAAUAUUACGGAAA,-2.28 ± 0.14,-1.72 ± 0.12
UUACAGCAAUAUUACGCUGG,-4.24 ± 0.32,-2.08 ± 0.23
ACCGAGCAAUAUUACGUGUC,-3.24 ± 0.2,-3.04 ± 0.27
CCGCAGCAAUAUUACGCGCG,-3.21 ± 0.2,-1.9 ± 0.17
AUAUAGCAAUAUUACGGGGC,-3.4 ± 0.43,-2.48 ± 0.32
CAGAAGCAAUAUUACGCGCG,-0.373 ± 0.17,0.0448 ± 0.29
GAUAAGCAAUAUUACGGGUG,-1.09 ± 0.081,-1.02 ± 0.099
GAGAAGCAAUAUUACGGUGU,-3.57 ± 0.15,-1.58 ± 0.099
UGAGAGCAAUAUUACGUCGU,-2.38 ± 0.2,-2.64 ± 0.36
AGCCAGCAAUAUUACGUGUU,-3.62 ± 0.11,-1.56 ± 0.087
CGGAAGCAAUAUUACGUUCG,-2.69 ± 0.18,-2.29 ± 0.34
GCCCAGCAAUAUUACGGGCC,-3.22 ± 0.13,-2.58 ± 0.26
AUAAAGCAAUAUUACGCGUU,-1.56 ± 0.084,0.0344 ± 0.1
CAGAAGCAAUAUUACGUAAC,-3.85 ± 0.27,-2.26 ± 0.32
ACGAAGCAAUAUUACGACCA,-0.752 ± 0.15,-0.848 ± 0.13
GAUUAGCAAUAUUACGGGGG,-4.1 ± 0.34,-2.72 ± 0.24
GUCAAGCAAUAUUACGACGA,-3.52 ± 0.29,-1.88 ± 0.18
GAAAAGCAAUAUUACGCGUU,-2.98 ± 0.13,-1.18 ± 0.12
GAGAAGCAAUAUUACGACUG,-0.535 ± 0.062,-0.0404 ± 0.073
UUUCAGCAAUAUUACGGCGG,-1.72 ± 0.15,-0.833 ± 0.18
UAGCAGCAAUAUUACGUAUU,-3.99 ± 0.26,-1.54 ± 0.19
AAUGAGCAAUAUUACGGCGG,-4.11 ± 0.34,-2.69 ± 0.29
ACAUAGCAAUAUUACGAUGC,-3.16 ± 0.15,-0.811 ± 0.12

Sequence,self-splicing fitness (ln) (30 °C),self-splicing fitness (ln) (37 °C)
AGAAAGCAAUAUUACGCCAG,-2.29 ± 0.2,-0.433 ± 0.17
CAGUAGCAAUAUUACGCGUC,-4.24 ± 0.31,-2.83 ± 0.24
AGACAGCAAUAUUACGAACC,-0.535 ± 0.12,-0.29 ± 0.19
CAUGAGCAAUAUUACGAGUC,-4.56 ± 0.28,-3.27 ± 0.22
CUGCAGCAAUAUUACGCAAU,-3.55 ± 0.25,-2.77 ± 0.21
CAGUAGCAAUAUUACGCCUA,-0.488 ± 0.14,-0.218 ± 0.15
AAUUAGCAAUAUUACGAGUC,,-1.9 ± 0.36
GAGUAGCAAUAUUACGGUGC,-1.19 ± 0.15,0.00945 ± 0.18
AGAGAGCAAUAUUACGAGCA,-2.68 ± 0.46,-1.31 ± 0.27
GCCGAGCAAUAUUACGAGCC,-3.06 ± 0.14,-2.3 ± 0.24
GGACAGCAAUAUUACGUUUU,-1.06 ± 0.061,-0.21 ± 0.073
GUGGAGCAAUAUUACGCGGA,,-1.85 ± 0.24
CCCCAGCAAUAUUACGGGUU,-3.63 ± 0.11,-1.85 ± 0.092
CAUAAGCAAUAUUACGAACU,-2.47 ± 0.23,-2.69 ± 0.29
AGCCAGCAAUAUUACGUGGG,-3.16 ± 0.13,-1.3 ± 0.11
CCAGAGCAAUAUUACGAACU,-3.13 ± 0.35,-1.86 ± 0.35
GACGAGCAAUAUUACGCCGC,-2.06 ± 0.16,-1.72 ± 0.38
UACUAGCAAUAUUACGACUG,-0.572 ± 0.095,0.113 ± 0.13
AUUUAGCAAUAUUACGCCAC,-3.24 ± 0.48,-1.36 ± 0.35
AUAUAGCAAUAUUACGAUCU,0.333 ± 0.15,0.288 ± 0.13
CGCGAGCAAUAUUACGCCAG,-2.74 ± 0.18,-2.75 ± 0.24
AGGAAGCAAUAUUACGCCAC,-2.13 ± 0.24,-2.64 ± 0.41
UCCUAGCAAUAUUACGCCUA,-2.01 ± 0.41,
GGAGAGCAAUAUUACGGCGU,-1.58 ± 0.2,-1.17 ± 0.26
GAGUAGCAAUAUUACGACGU,0.156 ± 0.093,0.524 ± 0.11

Sequence,self-splicing fitness (ln) (30 °C),self-splicing fitness (ln) (37 °C)
CGGGAGCAAUAUUACGCUGG,-4.21 ± 0.42,-2 ± 0.3
UCAAAGCAAUAUUACGUCUA,-1.92 ± 0.1,-0.787 ± 0.098
GUUCAGCAAUAUUACGGUAC,-2.69 ± 0.19,0.0172 ± 0.14
CCGCAGCAAUAUUACGAUGA,-3.2 ± 0.38,
GCCGAGCAAUAUUACGCAUA,-3.39 ± 0.22,-1.41 ± 0.16
CAAUAGCAAUAUUACGAAGG,-1.86 ± 0.095,-0.211 ± 0.13
AUCCAGCAAUAUUACGCGGA,-3.7 ± 0.25,-2.5 ± 0.17
CGGGAGCAAUAUUACGGGCU,-3.85 ± 0.34,-2.5 ± 0.41
AUAUAGCAAUAUUACGUACA,-1.07 ± 0.14,-0.785 ± 0.16
GACAAGCAAUAUUACGUGGG,-4.48 ± 0.2,-1.87 ± 0.12
CCAAAGCAAUAUUACGCAAG,-1.83 ± 0.12,-1.52 ± 0.14
CAAGAGCAAUAUUACGAAUC,-3.46 ± 0.41,-1.26 ± 0.38
ACAGAGCAAUAUUACGGAGG,-3.8 ± 0.33,-1.39 ± 0.24
AAGAAGCAAUAUUACGGGUC,-4.04 ± 0.35,-1.69 ± 0.21
ACCUAGCAAUAUUACGACCC,-0.886 ± 0.2,-0.637 ± 0.31
CUGAAGCAAUAUUACGAUUA,-2.6 ± 0.2,-2.84 ± 0.29
CACGAGCAAUAUUACGAAAA,-2.14 ± 0.17,-2.66 ± 0.25
AGUUAGCAAUAUUACGGCAG,-0.102 ± 0.13,-1.48 ± 0.21
AGUCAGCAAUAUUACGCCUG,-2.49 ± 0.16,-0.867 ± 0.11
GCUUAGCAAUAUUACGAGGU,-4.11 ± 0.21,-2.55 ± 0.18
CAUCAGCAAUAUUACGGCUG,-1.76 ± 0.11,-0.0705 ± 0.16
AAGCAGCAAUAUUACGAAAA,-2.81 ± 0.25,-1.77 ± 0.16
